Laboratory results reported in patent US20210107998A1 (Boehringer Ingelheim, published 2021).
Each block holds one binder with its values, some of them ahead of it.

Columns and labels:
[1] = biological target: T1, Recombinant human BAFF trimer (Boehringer Ingelheim Pharmaceuticals, Inc.) (human, UniProt Q9Y275 134-285, limits assumed); test: cell-based or functional assay
[2] = biological target: Recombinant cynomolgus BAFF trimer (Boehringer Ingelheim Pharmaceuticals, Inc.) (cynomolgus, UniProt A0A2K5V2X4 134-285); test: cell-based or functional assay
[3] = biological target: T1, Recombinant human BAFF trimer …; test: cell-based or functional assay; remark: listed apart in the source
[4] = biological target: Recombinant human BAFF 60mer (Boehringer Ingelheim Pharmaceuticals, Inc.) (human, UniProt Q9Y275 134-285, limits assumed); test: cell-based or functional assay
[5] = biological target: membrane-bound human BAFF on fixed CHO-K1 cells (human, UniProt Q9Y275 1-285); test: cell-based or functional assay
Recombinant human IL-23 [6] = biological target: T2, Recombinant human IL-23 (human, UniProt P29460 23-328); test: cell-based or functional assay
T2 sequence 1: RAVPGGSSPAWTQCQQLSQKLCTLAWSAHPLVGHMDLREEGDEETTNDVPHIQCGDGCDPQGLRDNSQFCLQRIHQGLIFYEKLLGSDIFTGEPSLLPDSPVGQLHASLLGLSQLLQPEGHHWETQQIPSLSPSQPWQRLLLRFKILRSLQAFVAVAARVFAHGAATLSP
T2 sequence 2: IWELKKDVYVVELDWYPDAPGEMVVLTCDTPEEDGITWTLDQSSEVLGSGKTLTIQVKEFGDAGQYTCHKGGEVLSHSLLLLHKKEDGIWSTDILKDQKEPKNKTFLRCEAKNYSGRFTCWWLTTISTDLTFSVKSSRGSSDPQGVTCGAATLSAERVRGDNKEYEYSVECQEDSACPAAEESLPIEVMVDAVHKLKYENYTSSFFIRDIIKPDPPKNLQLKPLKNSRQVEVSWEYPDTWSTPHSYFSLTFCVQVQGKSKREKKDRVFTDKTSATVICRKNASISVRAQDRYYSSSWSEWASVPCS

cynomolgus IL-23 [7] = biological target: T3, cynomolgus IL-23 (cynomolgus, UniProt H6WS56 20-189); test: cell-based or functional assay
Recombinant human IL-23 [8] = biological target: T2, Recombinant human IL-23; test: cell-based or functional assay; remark: listed apart in the source
cynomolgus IL-23 [9] = biological target: T3, cynomolgus IL-23; test: SPR (ProteOn XPR36), compound captured on goat anti-human IgG Fc, antigen injected
Protocol: (§1) SPR experiments were performed on a ProteOn XPR36 instrument (Bio Rad). A GLM chip was preconditioned with sequential injections of 60 sec of 0.5% SDS, 50 mM NaOH, and 100 mM HCl at a flow rate of 30 μl/min both vertical and horizontal directions.
(§2) The preconditioned GLM chip was then activated by an injection of EDC (76.7 mg/ml) and sulfo-NHS (21.7 mg/ml) mixture with ratio of 1:1 in 6 horizontal channels. Goat-anti-human IgG (GAHA) Fc gamma (Invitrogen) at a concentration of 30 μg/ml in 10 mM, pH 5.0 sodium acetate buffer was immobilized to 8,000 resonance units on the activated GLM chip in 6 horizontal channels. The chip was finally deactivated with 1 M ethanolamine HCl in 6 horizontal channels. The prepared GAHA chip was rotated to vertical direction to capture test compounds, over 5 vertical channels and the last channel was used as a column reference. The captured chip was then rotated again to the horizontal direction for binding. […] The dissociation was allowed for 2 hour. The GAHA surface was regenerated using short pulse injection (18 seconds) of 0.85% phosphoric acid (Bio Rad) at a flow rate of 100 μl/min both horizontal and vertical directions after 10 min association and 2 hr dissociation. The regenerated GAHA was ready for another binding cycle.

human BAFF [10] = biological target: T4, human BAFF (human, UniProt Q9Y275 134-285, limits assumed); test: as above
T4 construct: also called hu BAFF; hBAFF
Protocol: as §1, §2

cynomolgus BAFF = biological target: T5, cynomolgus BAFF (cynomolgus, UniProt A0A2K5V2X4 134-285); test: as above
T5 construct: construct not described
Protocol: as §1, §2

[11] = biological target: T6, Linked human IL-23 (Boehringer Ingelheim Pharmaceuticals, Inc.) (human, UniProt P29460 23-328); test: as above
T6 sequence 1: T2 sequence 1
T6 sequence 2: T2 sequence 2
Protocol: as §1, §2

human BAFF [12] = biological target: T4, human BAFF; test: BLI (Octet RED96, streptavidin tips), compound incubated 48 h at 37 C in whole blood vs kinetic buffer
Protocol: (§3) A whole blood interference assay was developed on an Octet RED96 to detect the effects of non-specific binding or off-target binding for compounds in the presence of whole blood (WB). The compound solutions in whole blood and 1× kinetic running buffer (1×kb) were incubated at a temperature of 37° C. for 48 hours. Kinetic measurements for the incubated compound samples were performed with an Octet RED96 equipped with streptavidin (SA) biosensor tips (ForteBio, Menlo Park, Calif.) at 27° C. The ratio of the on-rates/binding signals in buffer and whole blood were reported. A ratio <2 was considered to show no interference.

Recombinant human IL-23 [13] = biological target: T2, Recombinant human IL-23; test: as above
Protocol: as §3

B3: Compound X (bispecific antibody, human IgG4 S228P, kappa)
chain 1: SSELTQDPAVSVALGQTVRVTCQGDSLRSYYASWYQQKPGQAPVLVIYGKNNRPSGIPDRFSGSSSGNTASLTITGAQAEDEADYYCSSRDSSGNHWVFGGGTELTVLGGGSGGGGQVQLVQSGAEVKKPGSSVKVSCKASGYTFTDQTIHWMRQAPGQGLEWIGYIYPRDDSPKYNENFKGKVTITADKSTSTAYMELSSLRSEDTAVYYCAIPDRSGYAWFIYWGQGTLVTVSSLGGGSGASTKGPSVFPLAPCSRSTSESTAALGCLVKDYFPEPVTVSWNSGALTSGVHTFPAVLQSSGLYSLSSVVTVPSSSLGTKTYTCNVDHKPSNTKVDKRVESKYGPPCPPCPAPEFLGGPSVFLFPPKPKDTLYITREPEVTCVVVDVSQEDPEVQFNWYVDGVEVHNAKTKPREEQFNSTYRVVSVLTVLHQDWLNGKEYKCKVSNKGLPSSIEKTISKAKGQPREPQVYTLPPSQEEMTKNQVSLTCLVKGFYPSDIAVEWESNGQPENNYKTTPPVLDSDGSFFLYSRLTVDKSRWQEGNVFSCSVMHEALHNHYTQKSLSLSLG
chain 2: DIQMTQSPSSLSASVGDRVTITCKASRDVAIAVAWYQQKPGKVPKLLIYWASTRHTGVPSRFSGSGSRTDFTLTISSLQPEDVADYFCHQYSSYPFTFGSGTKLEIKGGGSGGGGQVQLQQSGAEVKKPGSSVRVSCKASGGTFNNNAINWVRQAPGQGLEWMGGIIPMFGTAKYSQNFQGRVAITADESTGTASMELSSLRSEDTAVYYCARSRDLLLFPHHALSPWGRGTMVTVSSLGGGSGRTVAAPSVFIFPPSDEQLKSGTASVVCLLNNFYPREAKVQWKVDNALQSGNSQESVTEQDSKDSTYSLSSTLTLSKADYEKHKVYACEVTHQGLSSPVTKSFNRGEC
IC50, NFkB luciferase reporter, human BAFFR-CHO cells [1]: 0.106 nM
IC90, NFkB luciferase reporter, human BAFFR-CHO cells [1]: 0.361 nM
IC50, NFkB luciferase reporter, human BAFFR-CHO cells [4]: 1.55 nM
IC90, NFkB luciferase reporter, human BAFFR-CHO cells [4]: 6.84 nM

B4: Compound E (bispecific antibody, human IgG1, kappa, L234A L235A)
chain 1: SSELTQDPAVSVALGQTVRVTCQGDSLRSYYASWYQQKPGQAPVLVIYGKNNRPSGIPDRFSGSSSGNTASLTITGAQAEDEADYYCSSRDSSGNHWVFGGGTELTVLGGGSGGGGQVQLVQSGAEVKKPGSSVKVSCKASGYTFTDQTIHWMRQAPGQGLEWIGYIYPRDDSPKYNENFKGKVTITADKSTSTAYMELSSLRSEDTAVYYCAIPDRSGYAWFIYWGQGTLVTVSSLGGGSGASTKGPSVFPLAPSSKSTSGGTAALGCLVKDYFPEPVTVSWNSGALTSGVHTFPAVLQSSGLYSLSSVVTVPSSSLGTQTYICNVNHKPSNTKVDKRVEPKSCDKTHTCPPCPAPEAAGGPSVFLFPPKPKDTLYITREPEVTCVVVDVSHEDPEVKFNWYVDGVEVHNAKTKPREEQYNSTYRVVSVLTVLHQDWLNGKEYKCKVSNKALPAPIEKTISKAKGQPREPQVYTLPPSREEMTKNQVSLTCLVKGFYPSDIAVEWESNGQPENNYKTTPPVLDSDGSFFLYSKLTVDKSRWQQGNVFSCSVMHEALHNHYTQKSLSLSPG
chain 2: B3 chain 2
Kd (cynomolgus IL-23 [9]): < 0.015 nM
Kd (human BAFF [10]): < 0.015 nM
Kd (cynomolgus BAFF): < 0.015 nM
Kd [11]: < 0.015 nM
Ratio of binding signal in WB/kinetic buffer (human BAFF [12]): 1
Ratio of binding signal in WB/kinetic buffer (Recombinant human IL-23 [13]): 1.1

Results, then the binder that gave them:

IC50, NFkB luciferase reporter, human BAFFR-CHO cells [1]: 0.232 nM
IC90, NFkB luciferase reporter, human BAFFR-CHO cells [1]: 0.743 nM
IC50 Geomean, NFkB luciferase reporter, human BAFFR-CHO cells [2]: 0.288 nM
IC90 Geomean, NFkB luciferase reporter, human BAFFR-CHO cells [2]: 0.635 nM
IC50 Geomean, NFkB luciferase reporter, human TACI-CHO cells [3]: 0.273 nM
IC90 Geomean, NFkB luciferase reporter, human TACI-CHO cells [3]: 0.576 nM
IC50, NFkB luciferase reporter, human BAFFR-CHO cells [4]: 24.1 nM
IC90, NFkB luciferase reporter, human BAFFR-CHO cells [4]: 180 nM
IC50, NFkB luciferase reporter, human BAFFR-CHO cells stimulated with fixed human BAFF CHO-K1 cells [5]: 0.553 nM
IC90, NFkB luciferase reporter, human BAFFR-CHO cells stimulated with fixed human BAFF CHO-K1 cells [5]: 10.1 nM
B1: Control Antibody 1 (anti-BAFF monoclonal antibody) (BAFF (1)) (antibody, V domains shown)
VH: QVQLQQSGAEVKKPGSSVRVSCKASGGTFNNNAINWVRQAPGQGLEWMGGIIPMFGTAKYSQNFQGRVAITADESTGTASMELSSLRSEDTAVYYCARSRDLLLFPHHALSPWGRGTMVTVSS
VL: SSELTQDPAVSVALGQTVRVTCQGDSLRSYYASWYQQKPGQAPVLVIYGKNNRPSGIPDRFSGSSSGNTASLTITGAQAEDEADYYCSSRDSSGNHWVFGGGTELTVL

IC50, STAT3-luciferase reporter in DB lymphoblast B cells (Recombinant human IL-23 [6]): 0.079 nM
IC90, STAT3-luciferase reporter in DB lymphoblast B cells (Recombinant human IL-23 [6]): 0.634 nM
IC50, IL-23-induced mouse IL-17 release from mouse splenocytes (cynomolgus IL-23 [7]): 0.064 nM
IC90, IL-23-induced mouse IL-17 release from mouse splenocytes (cynomolgus IL-23 [7]): 0.331 nM
IC50, IL-23-induced mouse IL-17 release from mouse splenocytes (Recombinant human IL-23 [8]): 0.084 nM
IC90, IL-23-induced mouse IL-17 release from mouse splenocytes (Recombinant human IL-23 [8]): 0.366 nM
B2: Control Antibody 4 (anti-IL-23A monoclonal antibody) (IL-23A (1)) (antibody, V domains shown)
VH: QVQLVQSGAEVKKPGSSVKVSCKASGYTFTDQTIHWMRQAPGQGLEWIGYIYPRDDSPKYNENFKGKVTITADKSTSTAYMELSSLRSEDTAVYYCAIPDRSGYAWFIYWGQGTLVTVSS
VL: DIQMTQSPSSLSASVGDRVTITCKASRDVAIAVAWYQQKPGKVPKLLIYWASTRHTGVPSRFSGSGSRTDFTLTISSLQPEDVADYFCHQYSSYPFTFGSGTKLEIK
